Measured values reported in patent publication US20230167458A1, “FORSKOLIN-INDUCIBLE PROMOTERS AND HYPOXIA-INDUCIBLE PROMOTERS” (ASKLEPIOS BIOPHARMACEUTICAL, INC., priority 2020, published 2023).

Tested on: CHO-GS-KSV1 cell line
Experiment: SEAP expression in stably transfected CHO-GS-KSV1, forskolin or NKH477 induction
Type: cell-based, chinese hamster
Settings: stable CHO-GS-KSV1, SEAP, forskolin or NKH477
Method: The forskolin-inducible promoters were then tested in a stably transfected CHO-GS-KSV1 cell line.
• CD-CHO media (Life technologies, CAT #10743029) • Corning 125 mL Polycarbonate Erlenmeyer Flask with Vent Cap (CAT #734-1885). • Gene Pulser® Electroporation Cuvettes, 0.4 cm gap (BioRad, CAT #165-2088) • Gene Pulser Xcell Total System (BioRad, CAT, #1652660) • GS-vector DNA ([…] in 100 μL TE buffer) linearised with Sca1 • Suspension cultures of CHOK1SV GS-KO host cells.
Cell suspensions of 6×10^5 cells per mL were incubated on an orbital shaker set at 8% CO2, 20% O2, 37° C., 85% relative humidity and 140 rpm overnight. 2.86×10^7 cells were centrifuged at 200 g for 3 minutes. Media was then aspirated and cell pellet resuspended in 2 mL fresh CD-CHO media to obtain a concentration of 1.43×10^7 cells per mL. 700 μL of cell suspension was added to each of two electroporation cuvettes each containing […] of linearised DNA in 100 μL of sterile TE buffer (Thermofisher, 12090015). Each cuvette was electroporated, delivering a single pulse of 300V, […] with resistance to infinity. Immediately after delivery of pulse electroplated cells were transferred to Erlenmeyer 125 mL flask containing 20 mL of CD-CHO media pre-warmed to 37° C. Electroporated cells from two cuvettes are combined into a single 125 mL flask to generate one pool of cells. Cells are cultured on an orbital shaker set at 8% CO2, 20% O2, 37° C., 85% relative humidity and 140 rpm. Cells are transferred to fresh CD-CHO media 24 hours after transfection and cell cultures monitored and given fresh CD-CHO media every 2-4 days. Usually after about 10-14 days cell numbers will be high enough to start passaging.
The transfected DNA was the pXC-17.4 expression vector (Lonza Biologics plc) where one of the promoter constructs (or a control promoter (CMV-IE) have been cloned upstream of the secreted alkaline phosphatase (SEAP) gene, which had been cloned into the multiple cloning site within the vector expression cassette. Promoters were closed into the pXC-17.4 vector using Gibson assembly. The pXC-17.4 expression vector is designed for making stable cell lines in the CHO-GSK1SV cell line as it contains the […] gene which has been knocked out of the cell line. Therefore, selection of cells in glutamine drop-out medium will select for cells that have stably integrated the plasmid.
The responsiveness of the RTV-019 promoter to different concentrations of forskolin and […] was tested in the stably transfected CHO-GS-KSV1 cell line. To this end, the stably transfected CHO-GS cells were seeded at 500,000 cells/ml and allowed to grow for 24 hrs. At this point the cells were induced by addition of the respective concentrations of forskolin and NKH477 and SEAP expression was measured as described below after 24 hours.
The promoter activity and inducibility of FMP-02, FORCYB-001, RTV-017, FORCSV-10, FOR-CMC-009, FLP-01 and RTV-019 were also tested in the stably transfected CHO-GS-KSV1 cell line. To this end, the stably transfected CHO-GS cells were seeded at 500,000 cells/ml and allowed to grow for 24 hrs. At this point the cells were exposed to […] forskolin or […] NKH477 for 24 hours. After this point, the SEAP activity in the medium was assessed as described below.
SEAP Reporter Gene Assay, chemiluminescent (Roche, CAT #11 779 842 001) was used to measure SEAP activity as per the manufacturer's protocol. All reagents and samples were fully pre-equilibrated at room temperature. Culture supernatant was collected from the stably transfected CHO-GS at the specific time points (0 h and 24 h). The supernatant was diluted 1:4 in dilution buffer and heat treated at 65° C. for 30 minutes. The heat-treated sample was then centrifuged for 30 s at maximum speed. 50 μl of the heat-treated sample was then added to 5 μl of inactivation buffer and incubated for 5 min at room temperature. 50 μl of substrate reagent was then added and incubated for 10 min at room temperature. […]

B1: RTV-019: synthetic forskolin-inducible promoter, SEQ ID NO: 44; 3× ATF6, 4× AP1(1) and 3× HRE1 TFBS and CMV-MP (nucleic acid)
DNA: TGACGTGCTGATGATGCGTAGCTAGTAGTTGACGTGCTGATGATGCGTAGCTAGTAGTTGACGTGCTGATGATGCGTAGCTAGTAGTTGAGTCAGATGATGCGTAGCTAGTAGTTGAGTCAGATGATGCGTAGCTAGTAGTTGAGTCAGATGATGCGTAGCTAGTAGTTGAGTCAGATGATGCGTAGCTAGTAGTCTGCACGTAGATGATGCGTAGCTAGTAGTCTGCACGTAGATGATGCGTAGCTAGTAGTCTGCACGTAGATGATGCGTAGCTAGTAGTGCAGTTAGCGTAGCTGAGGTACCGTCGACGATATCGGATCCAGGTCTATATAAGCAGAGCTCGTTTAGTGAACCGTCAGATCGCCTAGATACGCCATCCACGCTGTTTTGACCTCCATAGAAGATCGCCACC
modifications: Synp-RTV-019
notes: 3× ATF6, 4× AP1(1) and 3× HRE1 TFBS and CMV-MP
relative rank of promoter strength: strongest
